Experimental data published in the supplement of paper PMC10567573.

B1: WSB1 (parent)
chain: FSHDGLHVASLADDKMVRFWRIDE
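Note: lentivirally expressed fusions sorted by FACS into six bins by GFP to DsRed ratio, PSI derived from sequencing read proportions per bin multiplied by bin number.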

Variants of: B1
Test: protein stability index of a GFP-peptide fusion (GPS, HEK-293T) (PSI 1-6); higher = more stable
Conditions: c terminus: a fixed tail appended
FSHDGLHVASYADDKMVRFWRIDE [L11Y] showed a protein stability index of 1.3. In the case of FSHDGLHVASKADDKMVRFWRIDE [L11K], the protein stability index is reported as 2.24. For FSHDGLHVASFADDKMVRFWRIDE [L11F], the protein stability index was 2.5. FSHDGLHVASEADDKMVRFWRIDE [L11E] gave a protein stability index of 1.65. For FSHDGLHVASAADDKMVRFWRIDE [L11A], the protein stability index was 2.24. In the case of FSHDGLHVASSADDKMVRFWRIDE [L11S], the protein stability index is reported as 1.05. For FSHDGLHNASLADDKMVRFWRIDE [V8N], the protein stability index was 1.68. Variant FSHDGLHRASLADDKMVRFWRIDE [V8R] has a protein stability index of 1.84. Variant FSHDGLHDASLADDKMVRFWRIDE [V8D] has a protein stability index of 1.88. For FSHDGLHLASLADDKMVRFWRIDE [V8L], the protein stability index was 1.53. Work on FSHDGLHEASLADDKMVRFWRIDE [V8E] yielded a protein stability index of 2.59. With FSHDGLHTASLADDKMVRFWRIDE [V8T] the protein stability index was 1.86. Variant FSHDGLHGASLADDKMVRFWRIDE [V8G] has a protein stability index of 1.75. FSHDGLHKASLADDKMVRFWRIDE [V8K] showed a protein stability index of 1.1. FSHDGLHQASLADDKMVRFWRIDE [V8Q] showed a protein stability index of 3.68. FSHDGLHHASLADDKMVRFWRIDE [V8H] showed a protein stability index of 1.83. Work on FSHDGLHMASLADDKMVRFWRIDE [V8M] yielded a protein stability index of 1.03. For FSHDGLHWASLADDKMVRFWRIDE [V8W], the protein stability index was 2.92. FSHDGLHSASLADDKMVRFWRIDE [V8S] showed a protein stability index of 2.41. Work on FSHDGLHIASLADDKMVRFWRIDE [V8I] yielded a protein stability index of 1.92. FSHDGLHVASLAWDKMVRFWRIDE [D13W] showed a protein stability index of 2.68. With FSHDGLHVASLAPDKMVRFWRIDE [D13P] the protein stability index was 1.56. FSHDGLHVASLAKDKMVRFWRIDE [D13K] gave a protein stability index of 1.88. For FSHDGLHVASLAADKMVRFWRIDE [D13A], the protein stability index was 1.02. In the case of FSHDGLHVASLARDKMVRFWRIDE [D13R], the protein stability index is reported as 1.42. With FSHDGLHVASLAHDKMVRFWRIDE [D13H] the protein stability index was 3.41. For FSHDGLHVASLAEDKMVRFWRIDE [D13E], the protein stability index was 1.31. In the case of FSHDGLHVASLACDKMVRFWRIDE [D13C], the protein stability index is reported as 1.02. For FSHDGLHVASLATDKMVRFWRIDE [D13T], the protein stability index was 1.36. With FSHDGLHVASLANDKMVRFWRIDE [D13N] the protein stability index was 2.09. With FSHDGLHVASLAMDKMVRFWRIDE [D13M] the protein stability index was 1.22. Work on FSHDGLHVASLAGDKMVRFWRIDE [D13G] yielded a protein stability index of 1.04. Work on FSHDGLHVASLAIDKMVRFWRIDE [D13I] yielded a protein stability index of 1.21. Work on FSHDGLHVASLAVDKMVRFWRIDE [D13V] yielded a protein stability index of 2.03. In the case of FSHDGLHVASLALDKMVRFWRIDE [D13L], the protein stability index is reported as 2.13. FSHDGLHVAPLADDKMVRFWRIDE [S10P] gave a protein stability index of 1.63. In the case of FSHDGLHVAQLADDKMVRFWRIDE [S10Q], the protein stability index is reported as 1.82. Work on FSHDGLHVAGLADDKMVRFWRIDE [S10G] yielded a protein stability index of 1.65. Variant FSHDGLHVADLADDKMVRFWRIDE [S10D] has a protein stability index of 2.03. Variant FSHDGLHVAALADDKMVRFWRIDE [S10A] has a protein stability index of 1.74. FSHDGLHVAVLADDKMVRFWRIDE [S10V] gave a protein stability index of 1.11. Work on FSHDGLHVATLADDKMVRFWRIDE [S10T] yielded a protein stability index of 1.64. For FSHDGLHVAFLADDKMVRFWRIDE [S10F], the protein stability index was 3.47. FSHDGLHVALLADDKMVRFWRIDE [S10L] gave a protein stability index of 1.87. FSHDGLHVAELADDKMVRFWRIDE [S10E] gave a protein stability index of 2.02. Variant FSHDGLHVAKLADDKMVRFWRIDE [S10K] has a protein stability index of 2.84. Variant FSHDGLHVAILADDKMVRFWRIDE [S10I] has a protein stability index of 1.69. Variant FSHDGLHVANLADDKMVRFWRIDE [S10N] has a protein stability index of 1.75. FSHDGLHVASLVDDKMVRFWRIDE [A12V] gave a protein stability index of 1.75. For FSHDGLHVASLQDDKMVRFWRIDE [A12Q], the protein stability index was 2.55. In the case of FSHDGLHVASLHDDKMVRFWRIDE [A12H], the protein stability index is reported as 2.99. FSHDGLHVASLWDDKMVRFWRIDE [A12W] showed a protein stability index of 1.23. With FSHDGLHVASLPDDKMVRFWRIDE [A12P] the protein stability index was 1.57. FSHDGLHVASLLDDKMVRFWRIDE [A12L] gave a protein stability index of 2.04. FSHDGLHVASLTDDKMVRFWRIDE [A12T] showed a protein stability index of 1.79. For FSHDGLHVASLKDDKMVRFWRIDE [A12K], the protein stability index was 1.71. Variant FSHDGLHVASLSDDKMVRFWRIDE [A12S] has a protein stability index of 1.35. Variant FSHDGLHVASLDDDKMVRFWRIDE [A12D] has a protein stability index of 2.32. FSHDGLHVASLYDDKMVRFWRIDE [A12Y] showed a protein stability index of 1.66. In the case of FSHDGLHVASLGDDKMVRFWRIDE [A12G], the protein stability index is reported as 3.04. Variant FSHDGLHVASLCDDKMVRFWRIDE [A12C] has a protein stability index of 1.95. FSHDGLHVASLIDDKMVRFWRIDE [A12I] gave a protein stability index of 1.93. For FSHDGLHVASLNDDKMVRFWRIDE [A12N], the protein stability index was 2.43. For FSHDGLHVASLADCKMVRFWRIDE [D14C], the protein stability index was 2.36. For FSHDGLHVASLADNKMVRFWRIDE [D14N], the protein stability index was 2.03. Work on FSHDGLHVASLADEKMVRFWRIDE [D14E] yielded a protein stability index of 1.58. Work on FSHDGLHVASLADLKMVRFWRIDE [D14L] yielded a protein stability index of 1.58. FSHDGLHVASLADYKMVRFWRIDE [D14Y] showed a protein stability index of 1.52. FSHDGLHVASLADWKMVRFWRIDE [D14W] gave a protein stability index of 2.53. In the case of FSHDGLHVASLADPKMVRFWRIDE [D14P], the protein stability index is reported as 2.05. FSHDGLHVASLADFKMVRFWRIDE [D14F] gave a protein stability index of 2.93. Variant FSHDGLHVASLADQKMVRFWRIDE [D14Q] has a protein stability index of 1.78. With FSHDGLHVASLADIKMVRFWRIDE [D14I] the protein stability index was 3.14. In the case of FSHDGLHVASLADHKMVRFWRIDE [D14H], the protein stability index is reported as 2.2. With FSHDGLHVASLADTKMVRFWRIDE [D14T] the protein stability index was 1.83. Variant FSHDGLHVASLADKKMVRFWRIDE [D14K] has a protein stability index of 1.96. Variant FSHDGLHVASLADRKMVRFWRIDE [D14R] has a protein stability index of 1.95. Work on FSHDGLHVASLADMKMVRFWRIDE [D14M] yielded a protein stability index of 1.97. FSHDGLHVASLADDKNVRFWRIDE [M16N] showed a protein stability index of 1.36. With FSHDGLHVASLADDKWVRFWRIDE [M16W] the protein stability index was 1.57. In the case of FSHDGLHVASLADDKAVRFWRIDE [M16A], the protein stability index is reported as 1.57. FSHDGLHVASLADDKVVRFWRIDE [M16V] gave a protein stability index of 2.88. With FSHDGLHVASLADDKYVRFWRIDE [M16Y] the protein stability index was 1.66. With FSHDGLHVASLADDKIVRFWRIDE [M16I] the protein stability index was 1.4. FSHDGLHVASLADDKLVRFWRIDE [M16L] gave a protein stability index of 1.56. For FSHDGLHVASLADDKHVRFWRIDE [M16H], the protein stability index was 2.45. For FSHDGLHVASLADDKEVRFWRIDE [M16E], the protein stability index was 1.88. Variant FSHDGLHVASLADDKSVRFWRIDE [M16S] has a protein stability index of 2.12. FSHDGLHVASLADDKKVRFWRIDE [M16K] showed a protein stability index of 2.23. Work on FSHDGLHVASLADDKPVRFWRIDE [M16P] yielded a protein stability index of 2.05. With FSHDGLHVASLADDKTVRFWRIDE [M16T] the protein stability index was 1.16. Variant FSHDGLHVASLADDKGVRFWRIDE [M16G] has a protein stability index of 1.83. For FSHDGLHVASLADDKRVRFWRIDE [M16R], the protein stability index was 2.76. In the case of FSHDGLHVASLADDKCVRFWRIDE [M16C], the protein stability index is reported as 2.98.
